Assay results as given in a protein production outcome set (Wang et al. 2014).

Assay: label from the status in PepcDB records

Sequence	protein production
MKNSEESSSSSEDTNNATDTNTSESQDISVNGPEKVGDVYEIDGGTAKVMAISNKETTVKTGPIQFTVKKVIAAVANEQLPFIDVQIESENTSDEVVRFRPSLAQLATSTGVQIDEPSLLESDRLLDEYVGKVNDSGSIIYVFDNEEDIKDLESIRLRISSPFNEDLKNLGDKLDLKINLEHLEHHHHHH	not failed
MSLAAARGGVGAGPDVRPVHGVHARMAEKMTLSHKEIPTAKASVEVICAELLRLRDRFVSAAPEITPFALTLRLLVIALKHNVILNSTWVDSGEGPQVHVHRGVHLGFGAATERGLLVPVVTDAQDKNTRELASRVAELITGAREGTLTPAELRGSTFTVSNFGALGVDDGVPVINHPEAAILGLGAIKPRPVVVGGEVVARPTMTLTCVFDHRVVDGAQVAQFMCELRDLIESPETALLDLEGHHHHHH	not failed
MANLPTVLVTGASGRTGQIVYKKLKEGSDKFVAKGLVRSAQGKEKIGGEADVFIGDITDADSINPAFQGIDALVILTSAVPKMKPGFDPTKGGRPEFIFEDGQYPEQVDWIGQKNQIDAAKVAGVKHIVVVGSMGGTNPDHPLNKLGNGNILVWKRKAEQYLADSGTPYTIIRAGGLLDKEGGVRELLVGKDDELLQTDTKTVPRADVAEVCIQALLFEEAKNKAFDLGSKPEGTSTPTKDFKALFSQVTSRF	not failed
INQQEDSSESCWNCGRKASETCSGCNTARYCGSFCQHKDWEKHHHIC	not failed
MTKIIKYTNKDNETLYKFRFYAGLDEITGKQRYIRRQGFKSEKDAKTELLKIEYLVSTNQYFKSVKSGKFGDVLDEWLALHKETVKASTWRYIERRVKNHVRPYFKDMYVDKITLRHCQDFTNKAFAAAPVGFTQIISIVKNTLDYALRLGMIESNPMLYVIKPKKQTTISDKHGNYYNKDELKKFLAAAKDTDLKKYTLFRLLAYSGLRVGECLALTWHDLDYKNNTIAINKTYAKTNNGIKIQTPKTKASIRKVSLDVETIQVLKEWQLNQRKQLLKVGINAMNKQQLIFSNNKNSFIANETVRLAIHQIAKKTGIHPITTHGFRHTHATLLFASGMDIKQVQARLGHSNVQTTLNIYTHAIQDKQDKIGDEFAKYINF	failed
MSLILCIDVGNSHIYGGVFDGDEIKLRFRHTSKVSTSDELGIFLKSVLRENNCSPETIRKIAICSVVPQVDYSLRSACVKYFSIDPFLLQAGVKTGLNIKYRNPVEVGADRIANAIAATHSFPNQNIIVIDFGTATTFCAISHKKAYLGGAILPGLRLSADALSKNTAKLPSVEIIKTESVVGRSTIESIQSGVYYGVLGACKELIQRIHHEAFNGDQILILATGGFASLFDKQGLYDHLVPDLVLQGIRLAAMMNTAEGHHHHHH	not failed
MNRNLLLFASGSFVSLIGTRIYQVALAWWLYSKTGSSEYVGLFMISSFLPAIIVSPFAGTVVDRHSRRNMMVVMDILRGVLFMYLFLMEYFSELTMALLLIVTVLVSVFDSFFNPAVDSLLPDLVRKENLVRANSLYRLLKNLSKILGPALGSLLLKVVGLAGVILINSLSFLISGIFEMFIKVEEKHLKKVSKERNMWQDIKSALLYIRSVRFILVTILVIAIMNFFTGSMHVLLPEHVSKLGKSEWVYGTLMSMLSFGGLIVTFLMATIRTRASVKTLGLNLVGYGLAVFVFAMTGNHWLMFAMYFLIGIFQTLFNINVITLLQLAIPEEMRGKIFSLISAVSFSLLPVSYGFFGFLSSYVATAHIFITTSMALIAGGVLISLQRFEG	failed
LDAVVQEKFSGRRWTIPAKVYARPLELFNGLKLSREDFLRELDALGYRREPSVSGPGTVSVAASAVELNTRGFQFYEGAEPAQRVRVRFNGNYVSGLSQANGKELAVARLEPLLIGGLYPAHHEDRILVKLDQVPTYLIDTLVAVEDRDFWNHHGVSLKSVARAVWVNTTAGQLRQGGSTLTQQLVKNFFLSNERSLSRKINEAMMAVLLELHYDKRDILESYLNEVFLGQDGQRAIHGFGLASQYFFSQPLAELKLDQVALLVGMVKGPSYFNPRRYPDRALARRNLVLDVLAEQGVATQQEVDAAKLRPLGVTRQGSMADSSYPAFLDLVKRQLRQDYRDEDLTEEGLRIFTSFDPILQEKAETSVNETLKRLSGRKGVDQVEAAMVVTNPETGEIQALIGSRDPRFAGFNRALDAVRPIGSLIKPAVYLTALERPSKYTLTTWVQDEPFAVKGQDGQVWRPQNYDRRSHGTIFLYQGLANSYNLSTAKLGLDVGVPNVLQTVARLGINRDWPAYPSMLLGAGSLSPMEVATMYQTIASGGFNTPLRGIRSVLTADGQPLKRYPFQVEQRFDSGAVYLVQNAMQRVMREGTGRSVYSQLPSSLTLAGKTGTSNDSRDSWFSGFGGDLQAVVWLGRDDNGKTPLTGATGALQVWASFMRKAHPQSLEMPMPENVVMAWVDAQTGQGSAADCPNAVQMPYIRGSEPAQGPGCGSQNPAGEVMDWV	failed
MAQAPDSSVPVRMVVDLTVDDYAAFTAYAYQRPALRRRRHASHLRFAVLLAAGLLAVILLRVWDGRQLDWGAALPAYAQALVVGLAVFALLAVGYEYALPRLARGNVRRALGRQPDNPFLGRHTLDFGPRGVDDAAAGASGTMPWEAVGQVEETASHLYLFISPLQGVIIPKRGQSADVLQAVRAQLRAHVPGAALADAADKQ	failed
MKERKKKYVALWQVMQRECRRLVSRPLYLFCMVIAPLFCYLFFTTLMDSGLPQNLPAGVVDMDDSSTSRNIVRNLDAFSQTGVVAHYSNVTDARIAVQEGKIYGFFYIPKGLSAEAQSQRQPKISFYTNYSYLIAGSLLFRDMKMMGELTAGSAARSVLYAKGATEDQAMGFLQPIVIDTHPLNNPWLNYSVYLCNTLIPGVLMLLIFMVTVYSIGVEIKDRTAREWLRMSNNSIYIALAGKLLPHTVVFFIMGIFYNVYLYGFLHFPCNSGIFPMIFATLCLVLASQCCGIVMIGTLPTLRLGLSFASLWGVISFSISGFSFPVMAMNPVLQALSNLFPLRHYFLIYVDQALNGYSMAYSWSNYMALLIFMMLPFFVVHRLKEALVYYKYIP	failed
MAKSEEIIRERYKVMAPRIIKALNQRNFEAYFCETSEKAVECALSLIPQGASVAWGGSMTLEEIGLIQRLKEGNYQVIDRDTAKSQEERFSLMRQALLSDVYLASVNAMSEDGIMVNIDGRGNRISAIAFGPKTVILVVGMNKICRDLESARKRAHTYAAPNNALRLGLELPCTKTGCCFDCNKNNPSSICAQIVEMHSSIVPGRIKVILVGENLGL	failed
MIHDDQKPSSSLDLQEIRIQIDSVDQQIQELINRRATLAEAVAKAKFASEENPLFYRPEREAQVLRKVMERNQGPLSDVTMARLFREIMSACLALEAPQSIAFLGPEGTFTQSAALKHFGKDAVVRPLPTIDEVFREVEAGSAHYGVVPVENSSEGVVNHTLDCFRTSQLNVIGEVELRIHHQFLVSHNTRKDSIKQIYAHQQALAQCRQWLDTHYPGVERVALSSNAEAARRIRNEWHSAAIASDIAASMYDLEIFHSNIEDNPENTTRFLVIGREKIPQSGNDKTSLLISAHDRAGALLEILAPFAKHKISLTSIETRPALPEKWAYVFFIDLEGHIEQENVAAAIDDIRPLVKELRILGSYPAAVL	failed
MMWESESDGGVGVGGGGGREYGDGVLSSNKHGGVKTDGFELRGQSWFVATDIPSDLLVKIGDMNFHLHKYPLLSRSGKMNRLIYESRDPDPTILILDDLPGGPEAFELASKFCYGVPVDLTATNISGLRCAAEYLEMTEDLEEGNLIFKTEAFLSYVVLSSWRDSILVLKSCEKLSPWAENLQIVRRCSESIAWKACSNPKGIRWAYTGKAPSPSTTNFAGSSPRWNESKDSSFYCSPSRNTNSQPVPPDWWFEDVSILRIDHFVRVITAIKVKGMRFELLGAVIMHYAGKWLPGLIKEGGVAIAPAMSSAIGGGLGLGGDEMSISCGSNSSGGSSGPDWKGGLHMVLSAGKTNGHQDSVACLAGLGISPKDQRMIVESLISIIPPQKDSVTCSFLLRLLRAANMLKVAPALITELEKRVGMQFEQATLQDLLIPGYNNKGETMYDVDLVQRLLEHFLVQEQTEGSSPSRMSPSPSQSMYADIPRGNNNNGGGGGGNNQNAKMRVARLVDSYLTEVARDRNLPLTKFQVLAEALPESARTCDDGLYRAIDSYLKAHPTLSEHERKRLCRVMDCQKLSMDACMHAAQNERLPLRVVVQVLFSEQVKISNALANTSLKESTTLGEAMGTYQPMIPNRKTLIEATPQSFQEGWAAAKKDINTLKFELETVKTKYVELQNEMEVMQRQFEKTGKVKNTPSSSAWTSGWKKLSKLTKMSGQESHDISSGGEQAGVDHPPPRKPRRWRNSIS	failed
